In patent publication CN116178540A (SANYOU BIO INC, dated 2023):

Legend:
hANG1-Fc = biological target: T1, hANG1-Fc (human, UniProt Q15389); assay: ELISA
T1 chain: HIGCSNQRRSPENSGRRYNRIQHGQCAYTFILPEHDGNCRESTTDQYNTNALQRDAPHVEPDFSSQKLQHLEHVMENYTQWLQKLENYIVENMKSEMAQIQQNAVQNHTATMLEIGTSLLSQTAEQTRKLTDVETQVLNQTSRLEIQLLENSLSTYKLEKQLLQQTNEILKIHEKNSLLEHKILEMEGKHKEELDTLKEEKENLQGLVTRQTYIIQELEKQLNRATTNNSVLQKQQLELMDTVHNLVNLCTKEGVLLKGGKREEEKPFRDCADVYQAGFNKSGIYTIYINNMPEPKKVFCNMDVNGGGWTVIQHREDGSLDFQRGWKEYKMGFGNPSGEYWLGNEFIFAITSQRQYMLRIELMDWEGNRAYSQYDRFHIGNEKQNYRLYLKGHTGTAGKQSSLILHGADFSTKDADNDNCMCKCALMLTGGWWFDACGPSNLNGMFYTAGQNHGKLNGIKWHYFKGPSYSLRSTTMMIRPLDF

hANG2-Fc [1] = biological target: T2, hANG2-Fc (human, UniProt O15123); assay: competition ELISA (TIE2 blocking)
T2 chain: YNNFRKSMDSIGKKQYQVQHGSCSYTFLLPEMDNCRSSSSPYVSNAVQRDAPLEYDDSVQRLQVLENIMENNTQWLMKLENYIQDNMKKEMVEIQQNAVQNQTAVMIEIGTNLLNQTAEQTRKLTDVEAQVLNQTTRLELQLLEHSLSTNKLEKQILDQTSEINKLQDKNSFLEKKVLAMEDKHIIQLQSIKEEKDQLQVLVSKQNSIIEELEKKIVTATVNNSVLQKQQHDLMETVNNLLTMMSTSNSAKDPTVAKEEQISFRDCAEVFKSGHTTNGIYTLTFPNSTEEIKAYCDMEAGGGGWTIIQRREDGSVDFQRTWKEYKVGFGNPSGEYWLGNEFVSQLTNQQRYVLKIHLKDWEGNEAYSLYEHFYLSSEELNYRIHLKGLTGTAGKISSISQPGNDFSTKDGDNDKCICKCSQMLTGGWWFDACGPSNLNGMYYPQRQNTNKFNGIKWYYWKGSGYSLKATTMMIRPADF

hANG2-Fc [2] = biological target: T2, hANG2-Fc; assay: FACS competition (TIE2-HEK293)
hANG2-His [3] = biological target: T3, hANG2-His (human, UniProt O15123); assay: BLI
T3 chain: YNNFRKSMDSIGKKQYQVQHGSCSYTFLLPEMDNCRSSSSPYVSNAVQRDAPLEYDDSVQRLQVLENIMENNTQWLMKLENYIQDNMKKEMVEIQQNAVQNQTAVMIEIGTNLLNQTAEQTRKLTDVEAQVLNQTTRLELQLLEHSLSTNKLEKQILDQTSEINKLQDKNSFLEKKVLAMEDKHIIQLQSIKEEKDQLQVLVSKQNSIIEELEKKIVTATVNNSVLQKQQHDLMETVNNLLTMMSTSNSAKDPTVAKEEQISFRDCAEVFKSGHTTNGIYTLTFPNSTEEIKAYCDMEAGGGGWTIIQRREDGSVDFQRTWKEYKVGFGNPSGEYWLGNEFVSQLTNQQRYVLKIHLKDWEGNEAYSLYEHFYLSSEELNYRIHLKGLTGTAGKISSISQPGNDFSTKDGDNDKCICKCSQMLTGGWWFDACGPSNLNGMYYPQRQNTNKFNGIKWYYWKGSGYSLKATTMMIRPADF

hANG2-His [4] = biological target: T3, hANG2-His; assay: ELISA
hANG2-His [5] = biological target: T4, hANG2-His (human, UniProt O15123 19-496, limits assumed); assay: BLI (Gator), antibody captured on sensor, hANG2-His 100/50/25 nM
T4 construct: also called 人源ANG2; ANGPT2; not shown: C-terminal His tag
T4 sequence (looked up): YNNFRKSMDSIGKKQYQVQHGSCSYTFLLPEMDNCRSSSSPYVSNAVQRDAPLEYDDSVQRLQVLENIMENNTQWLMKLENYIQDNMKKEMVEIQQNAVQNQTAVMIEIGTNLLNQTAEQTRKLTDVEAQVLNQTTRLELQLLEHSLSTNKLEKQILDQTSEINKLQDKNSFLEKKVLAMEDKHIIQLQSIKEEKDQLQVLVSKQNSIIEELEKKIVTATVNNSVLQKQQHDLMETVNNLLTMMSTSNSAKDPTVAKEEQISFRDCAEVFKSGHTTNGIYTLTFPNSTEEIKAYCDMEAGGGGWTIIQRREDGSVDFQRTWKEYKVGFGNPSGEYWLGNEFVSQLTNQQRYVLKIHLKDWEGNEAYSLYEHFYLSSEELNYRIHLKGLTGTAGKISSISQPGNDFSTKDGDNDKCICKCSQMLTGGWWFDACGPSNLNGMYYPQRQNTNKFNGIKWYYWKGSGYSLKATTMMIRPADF

hANG2-His [6] = biological target: T4, hANG2-His; assay: as above; remark: listed apart in the source

B1: nesvacumab (antibody, V domains shown)
VH: EVQLVESGGGLVQPGGSLRLSCAASGFTFSSYDIHWVRQATGKGLEWVSAIGPAGDTYYPGSVKGRFTISRENAKNSLYLQMNSLRAGDTAVYYCARGLITFGGLIAPFDYWGQGTLVTVSS
VL: EIVLTQSPGTLSLSPGERATLSCRASQSVSSTYLAWYQQKPGQAPRLLIYGASSRATGIPDRFSGSGSGTDFTLTISRLEPEDFAVYYCQHYDNSQTFGQGTKVEIK
In the case of B1, the binding result (hANG1-Fc) is reported as “no binding”, the IC50 (hANG2-Fc [1]) is reported as 1.58 µg/mL and the IC50 (hANG2-Fc [2]) is reported as 0.362 µg/mL. For the same binder, the Kd (hANG2-His [3]) was 1.17 nM and the EC50 (hANG2-His [4]) was 0.442 µg/mL.

B2: 抗体78A74-25 (antibody, IgG1, V domains shown)
VH: QVQLVESGGGLVKPGGSLRLSCAASGFTFSSYSMNWVRQAPGKGLEWVAVISYDGSNKYYADSVKGRFTISRDNSKNTLYLQMNSLRAEDTAVYYCAKATLDGYTAGYYYGMDVWGQGTTVTVSS
VL: EIVLTQSPATLSLSPGERATLSCRASQSVSSYLAWYQQKPGQAPRLLIYDASNRATGIPARFSGSGSGTDFTLTISSLEPEDFAVYYCQQRSNWPPELYFGQGTKVEIK
B2 gave a Kd (hANG2-His [5]) of 0.828 nM, a koff (hANG2-His [5]) of 0.000161 s⁻¹ and a kon (hANG2-His [5]) of 194000 M⁻¹ s⁻¹. For the same binder, the “fold affinity against nesvacumab” value (hANG2-His [6]) was ~2 fold.

B3: 抗体78A74-36 (antibody, IgG1, V domains shown)
VH: QVQLVESGGGLVKPGGSLRLSCAASGFTFSSYSMNWVRQAPGKGLEWVAVISYDGSNKYYADSVKGRFTISRDNSKNTLYLQMNSLRAEDTAVYYCAKATLDGYTAGYYYGMDVWGQGTTVTVSS
VL: EIVLTQSPATLSLSPGERATLSCRASQSVSSYLAWYQQKPGQAPRLLIYDASNRATGIPARFSGSGSGTDFTLTISSLEPEDFAVYYCQQRTMWPPEWTFGQGTKVEIK
With B3 the Kd (hANG2-His [5]) was 1.32 nM, the koff (hANG2-His [5]) was 0.000263 s⁻¹ and the kon (hANG2-His [5]) was 200000 M⁻¹ s⁻¹.

B4: 抗体78A74-35 (antibody, IgG1, V domains shown)
VH: QVQLVESGGGLVKPGGSLRLSCAASGFTFSSYSMNWVRQAPGKGLEWVAVISYDGSNKYYADSVKGRFTISRDNSKNTLYLQMNSLRAEDTAVYYCAKATLDGYTAGYYYGMDVWGQGTTVTVSS
VL: EIVLTQSPATLSLSPGERATLSCRASQSVSSYLAWYQQKPGQAPRLLIYDASNRATGIPARFSGSGSGTDFTLTISSLEPEDFAVYYCQQRSNWPPAMTFGQGTKVEIK
B4 showed a Kd (hANG2-His [5]) of 1.52 nM, a koff (hANG2-His [5]) of 0.000284 s⁻¹ and a kon (hANG2-His [5]) of 187000 M⁻¹ s⁻¹.

B5: 抗体78A74-7 (antibody, IgG1, V domains shown)
VH: QVQLVESGGGLVKPGGSLRLSCAASGFTFSSYSMNWVRQAPGKGLEWVAVISYDGSNKYYADSVKGRFTISRDNSKNTLYLQMNSLRAEDTAVYYCAKATLDGYTAGYYYGMDVWGQGTTVTVSS
VL: EIVLTQSPATLSLSPGERATLSCRASQSVSSYLAWYQQKPGQAPRLLIYDASNRATGIPARFSGSGSGTDFTLTISSLEPEDFAVYYCQLMSNWPPEWTFGQGTKVEIK
B5 gave a Kd (hANG2-His [5]) of 0.544 nM, a koff (hANG2-His [5]) of 0.000103 s⁻¹ and a kon (hANG2-His [5]) of 189000 M⁻¹ s⁻¹. The “fold affinity against nesvacumab” value (hANG2-His [6]) was ~2 fold.

B6: 抗体78A74-21 (antibody, IgG1, V domains shown)
VH: QVQLVESGGGLVKPGGSLRLSCAASGFTFSSYSMNWVRQAPGKGLEWVAVISYDGSNKYYADSVKGRFTISRDNSKNTLYLQMNSLRAEDTAVYYCAKETLDGYTAGYYYGMDVWGQGTTVTVSS
VL: EIVLTQSPATLSLSPGERATLSCRASQSVGSYLAWYQQKPGQAPRLLIYDASNRATGIPARFSGSGSGTDFTLTISSLEPEDFAVYYCQQRSNGPPEWTFGQGTKVEIK
Work on B6 yielded a Kd (hANG2-His [5]) of 0.687 nM, a koff (hANG2-His [5]) of 0.000132 s⁻¹ and a kon (hANG2-His [5]) of 192000 M⁻¹ s⁻¹. For the same binder, the “fold affinity against nesvacumab” value (hANG2-His [6]) was ~2 fold.

B7: 17 (antibody, V domains shown)
VH: EVQLVESGGGVVKPGGSLRLSCAASGFTFNKYTINWVRQTPGKGLELVADISSGGDYVNYADSVKGRFTISRDNAKDSVYLLMNGLRAEDTAVYYCARDALTYSNNWLDSWGQGTLVTVSS
VL: DIQLTQSPSFLSASVGDRVTITCRASQGISSYLAWYQQKPGKAPKLLIYAASTLQSGVPSRFSGGGYGTDFTLTISSLQPEDFATYYCQQFESYPLTFGGGTRLEIK
With B7 the binding result (hANG1-Fc) was “no binding”, the IC50 (hANG2-Fc [1]) was 0.547 µg/mL and the IC50 (hANG2-Fc [2]) was 0.323 µg/mL. The EC50 (hANG2-His [4]) was 0.12 µg/mL.
